Laboratory results: publication PMC5206748

Columns and labels:
[1] = biological target: human P-cadherin expressed on CHO cells (human) (UniProt P22223)
TSP7 S77R (scFv) (mouse) = test: SPR; scFv (100 nM) captured on anti-His6-tag antibody on a CM5 chip; analyte 1.25-20 nM strand-swap dimer or 6.25-100 nM monomer construct; global fitting
Chain of TSP7 S77R (scFv) (mouse) (heavy, as listed by the source): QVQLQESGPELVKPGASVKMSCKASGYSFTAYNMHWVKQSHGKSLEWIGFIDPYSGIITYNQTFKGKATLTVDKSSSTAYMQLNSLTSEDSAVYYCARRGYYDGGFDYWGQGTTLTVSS

Chain of human P-cadherin expressed on CHO cells (P22223 108-829): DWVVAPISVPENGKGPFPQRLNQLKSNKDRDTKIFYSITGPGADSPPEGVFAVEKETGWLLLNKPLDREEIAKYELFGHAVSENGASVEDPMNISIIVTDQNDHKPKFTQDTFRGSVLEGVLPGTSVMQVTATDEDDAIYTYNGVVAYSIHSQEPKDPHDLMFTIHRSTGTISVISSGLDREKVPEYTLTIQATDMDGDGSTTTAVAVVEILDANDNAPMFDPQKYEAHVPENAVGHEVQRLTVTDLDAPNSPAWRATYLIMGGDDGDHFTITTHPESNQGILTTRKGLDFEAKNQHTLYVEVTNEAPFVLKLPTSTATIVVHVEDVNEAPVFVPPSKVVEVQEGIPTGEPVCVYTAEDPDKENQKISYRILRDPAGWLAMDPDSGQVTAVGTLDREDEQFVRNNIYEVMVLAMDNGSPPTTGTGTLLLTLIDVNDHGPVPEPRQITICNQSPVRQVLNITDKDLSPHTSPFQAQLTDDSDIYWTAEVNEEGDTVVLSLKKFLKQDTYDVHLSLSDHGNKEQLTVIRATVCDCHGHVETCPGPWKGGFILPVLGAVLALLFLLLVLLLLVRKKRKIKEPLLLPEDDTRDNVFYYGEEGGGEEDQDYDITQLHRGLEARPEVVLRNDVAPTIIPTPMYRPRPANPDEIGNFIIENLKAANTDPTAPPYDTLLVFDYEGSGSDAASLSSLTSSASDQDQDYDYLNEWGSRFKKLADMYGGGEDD

Row | loss of dense fluorescent puncta of P-cadherin WT-mGFP at cell-cell boundaries of CHO cells after 100 nM TSP7 (0-120 min) [1] [%] | fold change of affinity against TSP7 WT (TSP7 S77R (scFv) (mouse)) [fold lower] | Substance
1 | 90 | – | human P-cadherin expressed on CHO cells (from UniProt P22223 108-829) (natural protein)
2 | – | 2 | human P-cadherin EC12 K14E (domain or fragment)
